# Experiments:
# [1] = system: locally advanced or metastatic solid tumors; test: Phase I study: anti-tumor activity (RECIST); type: in vivo, humans
# Procedure: The following activity outcome measures are assessed: objective response, defined as a complete or partial response confirmed≧4 weeks after initial documentation; duration of objective response; and progression-free survival. Objective response and disease progression will be determined using RECIST.
# Patient selection criteria.
# c-met [2] = molecular target: c-met (Rattus norvegicus, UniProt P97523); test: Binding to c-met in rats
# [3] = PK study, single IV bolus dose in nude mice; type: in vivo
# Procedure: (§1) PK studies. PK studies were conducted in mice, rats, and cynomolgus monkeys.
# The expected serum concentration at the time of serum sample collection was estimated based on PK parameters determined in the PK study in non-tumor bearing mice (described above). […] These PK parameters were used to estimate serum concentration by WinNonlin Enterprise Version 5.0.1 (Pharsight Corp., Mountain View, Calif.) for doses tested in IV infusion study.
# (§2) Pharmacokinetic Assays for MetMAb in Mouse Serum and Rat Serum. […] A direct ELISA assay was developed for quantification of MetMAb in mouse serum and Sprague-Dawley rat serum. Plates were coated with human c-Met-Fc fusion protein to which samples, standards, and dosing solutions were added. Goat anti-human F(Ab′)2 horseradish peroxidase (HRP) was used for detection. Tetrapethyl benzidine (TMB) peroxidase substrate was added for signal development. The substrate reaction was stopped with phosphoric acid. The plates were read at an absorbance of 450 nm. […] The lower limit of quantitation in the assay was 0.47 ng/mL and the upper limit of quantification was 30 ng/mL. The minimum dilution for nude mouse serum samples was 1/10, resulting in a minimum quantifiable concentration of 4.7 ng/mL, with an indefinite upper limit. The minimum dilution for rat serum samples was 1/50, resulting in a minimum quantifiable concentration of 23.5 ng/mL, with an indefinite upper limit.
# (§3) Mouse, Rat, and Cynomolgus Monkey PK data analysis. […] PK parameters were estimated using WinNonlin Enterprise Version 5.0.1 (Pharsight Corp., Mountain View, Calif.). The nominal dose administered for each group was used for modeling. Since a single concentration-time profile for mice was determined for each group, one estimate of each PK parameter was obtained and is reported, along with the standard error (SE) of the fit of each PK parameter. For rats and monkeys, PK parameters are reported as mean (+/−SD).
# (§4) For IV administrations, a two-compartment elimination model with IV bolus input and first-order elimination was used to describe the observed data (WinNonlin Model 7). Concentrations were weighted using iterative reweighting (1/ŷ^2) and the Nelder-Mead minimization algorithm. The following equation was used to calculate concentration over time in Model 7: […]
# IL-8 = test: Phase I study: serum IL-8 levels by electrochemiluminescence; type: in vivo, humans
# Procedure: Pre- and post-dose serum is collected for evaluation of pharmacodynamic (PD) biomarkers that could be affected by inhibition of Met signaling. In addition, archival tissue is obtained for exploratory diagnostic assessments.
# Serum IL-8 levels (diluted 1:5) were determined using an electrochemiluminescence based method as directed by the manufacturer (Meso Scale Discovery, Gaithersburg Md.; Cat. No. K111ANC).
# c-met [4] = molecular target: c-met (Mus musculus, UniProt P16056); test: Binding to c-met in mice
# [5] = Safety factor calculation (cynomolgus monkey vs proposed human starting dose); parameters: species or system cynomolgus monkeys; settings: Planned Phase Ia starting dose 1 mg/kg
# Procedure: Safety Factor Calculation. Safety factor was calculated for Dose, AUC, Cmax as the ratio at the highest non-severely toxic dose (HNSTD) observed in the single or repeat-dose safety study to the proposed phase I starting dose. The equations are:
# Safety factor (SF)Dose=DoseCyno/DoseHuman
# SFCmax=(Cmax-Cyno)/(Cmax-Human)
# For body surface area calculation: The body weight to surface area index is 12 kg/m^2 for cynomolgus monkeys and 37.5 kg/m^2 for humans.
# [6] = Phase I dose-escalation study: safety and tolerability; type: in vivo, humans
# Procedure: Study design. There are two stages to this study, a dose-escalation stage and an expansion stage.
# Study treatment. […] Dose levels tested in Phase I were: 1 mg/kg, 4 mg/kg, 10 mg/kg, 20 mg/kg, and 30 mg/kg.
# [7] = PK study, single IV bolus dose in Sprague-Dawley rats; type: in vivo
# Procedure: as §1, §2, §3, §4
# [8] = Estimation of human PK by allometric scaling; parameters: species or system humans
# Excerpt: Estimation of Human PK Profile.
# One approach was allometric scaling, which is based on the assumption that many physical and physiological parameters vary according to a mathematical function of body weight (BW)
# Y=a×BWb • where Y is the variable of interest, a is the y-axis intercept, and b is slope.
# The log plot of CL value versus body weight, repression, and R-squared values were generated by KaleidaGraph (version 3.6).
# [9] = Athymic nude mouse, single IV dose
# [10] = non-tumor-bearing mice, two-compartmental model
# Chain of c-met (Mus musculus, UniProt P16056) (P16056 25-1379): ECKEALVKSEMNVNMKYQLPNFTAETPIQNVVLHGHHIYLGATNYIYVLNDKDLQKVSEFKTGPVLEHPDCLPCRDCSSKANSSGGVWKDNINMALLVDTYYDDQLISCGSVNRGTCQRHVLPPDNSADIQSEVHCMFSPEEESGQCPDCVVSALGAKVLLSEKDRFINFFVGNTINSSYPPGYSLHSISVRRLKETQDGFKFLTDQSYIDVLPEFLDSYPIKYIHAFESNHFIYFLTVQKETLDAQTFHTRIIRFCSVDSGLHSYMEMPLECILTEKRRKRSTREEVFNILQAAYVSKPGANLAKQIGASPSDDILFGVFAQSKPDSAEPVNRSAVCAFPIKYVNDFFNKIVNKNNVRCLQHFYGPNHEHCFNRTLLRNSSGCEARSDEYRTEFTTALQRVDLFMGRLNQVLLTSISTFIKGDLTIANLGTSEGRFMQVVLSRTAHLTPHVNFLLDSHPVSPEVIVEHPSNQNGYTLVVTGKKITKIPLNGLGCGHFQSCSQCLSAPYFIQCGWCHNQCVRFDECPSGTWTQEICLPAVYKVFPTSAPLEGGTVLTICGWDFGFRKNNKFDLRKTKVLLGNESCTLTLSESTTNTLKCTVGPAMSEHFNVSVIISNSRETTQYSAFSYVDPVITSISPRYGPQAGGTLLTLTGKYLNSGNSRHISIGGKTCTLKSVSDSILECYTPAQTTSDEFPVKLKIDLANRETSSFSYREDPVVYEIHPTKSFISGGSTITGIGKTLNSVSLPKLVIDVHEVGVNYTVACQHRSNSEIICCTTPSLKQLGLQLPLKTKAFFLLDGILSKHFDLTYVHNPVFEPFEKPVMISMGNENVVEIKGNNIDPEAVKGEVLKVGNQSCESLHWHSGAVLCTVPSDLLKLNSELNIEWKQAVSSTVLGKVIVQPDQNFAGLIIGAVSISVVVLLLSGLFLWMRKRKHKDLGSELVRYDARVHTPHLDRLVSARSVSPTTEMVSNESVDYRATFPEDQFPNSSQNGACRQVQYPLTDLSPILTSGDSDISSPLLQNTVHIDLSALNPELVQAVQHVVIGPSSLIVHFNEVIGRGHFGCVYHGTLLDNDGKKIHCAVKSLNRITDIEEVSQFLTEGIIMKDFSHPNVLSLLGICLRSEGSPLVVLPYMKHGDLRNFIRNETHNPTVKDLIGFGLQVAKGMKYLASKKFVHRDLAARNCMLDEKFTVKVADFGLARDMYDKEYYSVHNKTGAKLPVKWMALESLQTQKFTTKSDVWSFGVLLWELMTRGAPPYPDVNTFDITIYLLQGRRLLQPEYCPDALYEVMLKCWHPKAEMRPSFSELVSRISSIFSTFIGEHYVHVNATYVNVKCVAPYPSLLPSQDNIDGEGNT
# Chain of c-met (Rattus norvegicus, UniProt P97523) (P97523 25-1382): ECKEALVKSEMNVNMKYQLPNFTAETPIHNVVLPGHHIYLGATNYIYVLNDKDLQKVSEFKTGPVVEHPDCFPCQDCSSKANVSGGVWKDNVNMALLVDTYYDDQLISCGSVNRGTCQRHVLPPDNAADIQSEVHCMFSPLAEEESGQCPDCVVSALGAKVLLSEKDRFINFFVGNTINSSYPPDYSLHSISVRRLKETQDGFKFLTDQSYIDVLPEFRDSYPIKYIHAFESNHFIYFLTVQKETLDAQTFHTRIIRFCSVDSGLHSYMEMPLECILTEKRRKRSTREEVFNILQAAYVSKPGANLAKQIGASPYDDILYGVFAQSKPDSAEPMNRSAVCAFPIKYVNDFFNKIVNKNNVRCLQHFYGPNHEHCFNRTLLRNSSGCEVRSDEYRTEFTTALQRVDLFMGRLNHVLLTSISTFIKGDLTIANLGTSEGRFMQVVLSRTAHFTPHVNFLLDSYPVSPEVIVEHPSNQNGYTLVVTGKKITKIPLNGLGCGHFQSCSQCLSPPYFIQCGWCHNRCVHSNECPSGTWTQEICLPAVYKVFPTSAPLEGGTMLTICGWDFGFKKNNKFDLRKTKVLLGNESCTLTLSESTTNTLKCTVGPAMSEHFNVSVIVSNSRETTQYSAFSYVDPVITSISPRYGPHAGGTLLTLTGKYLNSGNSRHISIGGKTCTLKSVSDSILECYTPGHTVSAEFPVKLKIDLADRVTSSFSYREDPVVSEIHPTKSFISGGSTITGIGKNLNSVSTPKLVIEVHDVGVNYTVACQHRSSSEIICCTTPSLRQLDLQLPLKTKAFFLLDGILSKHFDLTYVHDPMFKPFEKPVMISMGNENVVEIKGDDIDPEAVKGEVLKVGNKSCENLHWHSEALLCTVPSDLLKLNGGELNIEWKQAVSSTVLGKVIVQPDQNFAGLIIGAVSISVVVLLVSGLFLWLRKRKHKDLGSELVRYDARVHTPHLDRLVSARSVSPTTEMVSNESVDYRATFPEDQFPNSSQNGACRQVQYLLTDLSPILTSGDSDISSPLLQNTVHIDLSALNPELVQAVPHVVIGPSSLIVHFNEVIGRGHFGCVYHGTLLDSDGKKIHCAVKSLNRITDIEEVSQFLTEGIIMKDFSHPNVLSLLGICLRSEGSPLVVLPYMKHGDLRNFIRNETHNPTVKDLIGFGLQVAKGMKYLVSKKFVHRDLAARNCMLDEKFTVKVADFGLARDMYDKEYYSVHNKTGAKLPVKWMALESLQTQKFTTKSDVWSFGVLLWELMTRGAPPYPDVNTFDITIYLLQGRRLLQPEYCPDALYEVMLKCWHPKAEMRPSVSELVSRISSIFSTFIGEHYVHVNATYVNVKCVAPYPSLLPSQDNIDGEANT
substance,measurement,setting,value
"MetMAb: recombinant, humanized, monovalent (one-armed) monoclonal antibody directed against human c-met",Progressive disease (patients),"[1]; 21 patients, dose escalation stage",Three
same,Response of patient 11009,"[1]; gastric adenocarcinoma with metastatic liver lesion, CT Jun. 13, 2008, confirmed July 2008",complete response
same,"Complete, objective response (patients)","[1]; gastric cancer patient, 20 mg/kg cohort",one
same,Binding to c-met,c-met [2],does not bind to c-met
same,Terminal Half-Life,[3]; [9],113 h
same,V1,[3]; [9],0.0488 L/kg
same,Vss,[3]; [9],0.14 L/kg
same,Serum disposition,[3]; non-tumor-bearing mice,biphasic and exhibited dose-proportionality
same,CLd (inter-compartmental clearance),[3]; [10],190 mL/day/kg
same,V2 (apparent peripheral volume of distribution),[3]; [10],0.0907 L/kg
same,Reduction in circulating IL-8,"IL-8; 24 h following treatment, subjects with baseline IL-8 >50 pg/ml",> 50%
same,Change in serum IL8 following MetMAb infusions,IL-8; most patients with baseline serum IL8 above normal controls,decrease in serum IL8
same,Change in IL-8 expression post-MetMAb treatment,IL-8; subjects with less than 50 pg/ml baseline IL-8,did not change significantly
same,Binding to c-met,c-met [4],does not bind to c-met
same,Multiple Dose Safety Factor: Body Surface Area,[5],105
same,Multiple Dose Safety Factor: Total Dose,[5],325
same,Single Dose Safety Factor: Body Surface Area,[5],32
same,Single Dose Safety Factor: Single Dose,[5],100
same,"Abdominal pain, drug-related, Grade 1 or 2 (patients)",[6]; Total (n = 21),0
same,"Abdominal pain, drug-related, Grade 3 (patients)",[6]; Total (n = 21),1 (4.8%)
same,"Anorexia, drug-related, Grade 1 or 2 (patients)",[6]; Total (n = 21),2
same,"Anorexia, drug-related, Grade 3 (patients)",[6]; Total (n = 21),0
same,"Any adverse event, drug-related, Grade 3 (patients)",[6]; Total (n = 21),2 (9.5%)
same,"Diarrhoea, drug-related, Grade 1 or 2 (patients)",[6]; Total (n = 21),1
same,"Diarrhoea, drug-related, Grade 3 (patients)",[6]; Total (n = 21),0
same,"Dysgeusia, drug-related, Grade 1 or 2 (patients)",[6]; Total (n = 21),1
same,"Dysgeusia, drug-related, Grade 3 (patients)",[6]; Total (n = 21),0
same,"Fatigue, drug-related, Grade 1 or 2 (patients)",[6]; Total (n = 21),7
same,"Fatigue, drug-related, Grade 3 (patients)",[6]; Total (n = 21),0
same,"Flushing, drug-related, Grade 1 or 2 (patients)",[6]; Total (n = 21),1
same,"Flushing, drug-related, Grade 3 (patients)",[6]; Total (n = 21),0
same,"Gastroesophageal reflux disease (GERD), drug-related, Grade 1 or 2 (patients)",[6]; Total (n = 21),1
same,"Gastroesophageal reflux disease (GERD), drug-related, Grade 3 (patients)",[6]; Total (n = 21),0
same,"Hypoalbuminaemia, drug-related, Grade 1 or 2 (patients)",[6]; Total (n = 21),2
same,"Hypoalbuminaemia, drug-related, Grade 3 (patients)",[6]; Total (n = 21),0
same,"Muscle spasms, drug-related, Grade 1 or 2 (patients)",[6]; Total (n = 21),1
same,"Muscle spasms, drug-related, Grade 3 (patients)",[6]; Total (n = 21),0
same,"Mydriasis, drug-related, Grade 1 or 2 (patients)",[6]; Total (n = 21),1
same,"Mydriasis, drug-related, Grade 3 (patients)",[6]; Total (n = 21),0
same,"Nausea, drug-related, Grade 1 or 2 (patients)",[6]; Total (n = 21),3
same,"Nausea, drug-related, Grade 3 (patients)",[6]; Total (n = 21),0
same,"Oedema peripheral, drug-related, Grade 1 or 2 (patients)",[6]; Total (n = 21),2
same,"Oedema peripheral, drug-related, Grade 3 (patients)",[6]; Total (n = 21),0
same,"Oral candidiasis, drug-related, Grade 1 or 2 (patients)",[6]; Total (n = 21),1
same,"Oral candidiasis, drug-related, Grade 3 (patients)",[6]; Total (n = 21),0
same,"Paraesthesia oral, drug-related, Grade 1 or 2 (patients)",[6]; Total (n = 21),1
same,"Paraesthesia oral, drug-related, Grade 3 (patients)",[6]; Total (n = 21),0
same,"Pyrexia, drug-related, Grade 1 or 2 (patients)",[6]; Total (n = 21),0
same,"Rash, drug-related, Grade 1 or 2 (patients)",[6]; Total (n = 21),1
same,"Rash, drug-related, Grade 3 (patients)",[6]; Total (n = 21),0
same,"Swelling face, drug-related, Grade 1 or 2 (patients)",[6]; Total (n = 21),1
same,"Swelling face, drug-related, Grade 3 (patients)",[6]; Total (n = 21),0
same,"Vomiting, drug-related, Grade 1 or 2 (patients)",[6]; Total (n = 21),3
same,"Vomiting, drug-related, Grade 3 (patients)",[6]; Total (n = 21),0
same,"Pyrexia, drug-related, Grade 3 (patients)","[6]; Total (n = 21), Dose Limiting Toxicity (DLT)",1 (4.8%)
same,Dose limiting toxicity (DLT),"[6]; at 4 mg/kg, doses up to 30 mg/kg",A single dose limiting toxicity (DLT) of Grade 3 pyrexia
same,Grade 3 toxicity of abdominal pain,[6]; at 20 mg/kg,One
same,Most commonly reported adverse event,[6]; dose-escalation,"fatigue (Grade 1, 2)"
same,Drug-related Grade 4 toxicities,"[6]; dose-escalation, 1-30 mg/kg",No drug-related Grade 4 toxicities
same,Safety and tolerability as a single agent,"[6]; doses up to 30 mg/kg, every 3 weeks",safe and generally well tolerated
same,Terminal Half-Life,[7]; Sprague Dawley rat,124 h
same,V1,[7]; Sprague Dawley rat,0.0446 L/kg
same,Vss,[7]; Sprague Dawley rat,0.107 L/kg
same,CL,[7]; Sprague Dawley rat (n = 6),18.8 mL/day/kg
same,Predicted clearance in humans,[8],10 mL/day/kg
